Series [1] has as its target T1, rCsrABb (carbon storage regulator A) (Borrelia burgdorferi, UniProt O51202 1-81).
T1 sequence: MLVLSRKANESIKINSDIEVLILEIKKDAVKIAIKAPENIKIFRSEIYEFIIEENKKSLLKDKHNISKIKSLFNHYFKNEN
Briefly: EMSA. (In EMSA bound probe runs differently from free probe, usually more slowly.)

Series [2] addresses T1, rCsrABb (carbon storage regulator A). Nature of the series: EMSA. The source holds these as a separate data set.

Read-outs that look alike come from different tables or passages of the source.

B1: flaB leader probe, wild type (P10, flaBp) (ssRNA)
RNA: GCAAAAGGAUUUGCCAAAGUCAGAAUUUAAAUUUUAUCAUGGAGGAAUGA
Regarding B1, the binding result in series [1] is reported as “binds”.

B2: flaB leader probe, BS1 BS2 mutated (P13) (ssRNA)
RNA: GCAAAAAAAUUUGCCAAAGUCAGAAUUUAAAUUUUAUCAUAAAGGAAUGA
On to B2, for which the binding result in series [2] is recorded as “no binding”.

The values above are taken from PMC3212630.
